Values of other authors as cited in publication PMC3970081.

Target: KIF5B tail (Rattus norvegicus) (UniProt Q2PQA9)
Experiment: SPR

KIF5B tail (Rattus norvegicus), sequence (Q2PQA9 758-963): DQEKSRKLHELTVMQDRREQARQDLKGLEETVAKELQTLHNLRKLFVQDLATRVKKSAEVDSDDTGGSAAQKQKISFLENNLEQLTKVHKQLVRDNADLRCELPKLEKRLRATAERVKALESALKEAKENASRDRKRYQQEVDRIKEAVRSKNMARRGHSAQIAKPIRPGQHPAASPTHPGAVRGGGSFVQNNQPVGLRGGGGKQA
Kv3.1 T1 domain, sequence (P25122 1-129): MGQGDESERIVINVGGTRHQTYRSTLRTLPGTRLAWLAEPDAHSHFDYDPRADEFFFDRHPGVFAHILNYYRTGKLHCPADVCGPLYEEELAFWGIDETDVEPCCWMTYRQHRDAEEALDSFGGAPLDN

Kd: 0.06 µM
Substance: Kv3.1 T1 domain (from UniProt P25122)
